Earlier results, collected in article PMC6018615.

Target: TNPO1 (Homo sapiens) (UniProt Q92973)
Sequence of UniProt Q92973 (Q92973 whole entry): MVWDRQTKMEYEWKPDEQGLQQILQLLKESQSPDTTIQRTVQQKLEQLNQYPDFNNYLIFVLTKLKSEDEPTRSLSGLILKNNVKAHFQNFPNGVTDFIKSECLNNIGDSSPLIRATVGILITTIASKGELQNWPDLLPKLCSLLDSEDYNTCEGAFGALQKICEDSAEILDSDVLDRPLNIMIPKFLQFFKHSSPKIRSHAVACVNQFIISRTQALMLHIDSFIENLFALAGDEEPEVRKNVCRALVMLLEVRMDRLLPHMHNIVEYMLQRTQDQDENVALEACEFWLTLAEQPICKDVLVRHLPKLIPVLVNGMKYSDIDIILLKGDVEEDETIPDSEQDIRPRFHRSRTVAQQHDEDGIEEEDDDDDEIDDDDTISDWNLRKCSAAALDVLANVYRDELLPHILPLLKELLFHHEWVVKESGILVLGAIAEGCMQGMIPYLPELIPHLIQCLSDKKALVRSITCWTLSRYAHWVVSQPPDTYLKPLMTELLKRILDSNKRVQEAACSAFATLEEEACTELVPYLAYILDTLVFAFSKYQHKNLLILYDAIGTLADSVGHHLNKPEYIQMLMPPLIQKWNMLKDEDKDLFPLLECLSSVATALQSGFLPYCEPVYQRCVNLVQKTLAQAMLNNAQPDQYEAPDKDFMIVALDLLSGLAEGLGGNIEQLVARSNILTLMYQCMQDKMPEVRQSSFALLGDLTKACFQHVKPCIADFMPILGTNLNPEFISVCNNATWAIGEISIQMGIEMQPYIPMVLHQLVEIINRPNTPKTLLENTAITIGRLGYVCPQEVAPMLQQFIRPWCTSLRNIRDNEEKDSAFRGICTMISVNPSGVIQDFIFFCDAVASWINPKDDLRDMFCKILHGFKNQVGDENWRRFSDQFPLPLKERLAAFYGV

Kd: 9.5 nM
Substance: FUS (from UniProt P35637)
